Among the data in paper PMC9516175 are binding signal (% of WT shifted) values, retold here.

The data set deals with VIRP1 (Arabidopsis thaliana). Description: EMSA.
Regarding HSVd WT, the binding signal (% of WT shifted) turned out to be 100.
Turning to PSTVd WT, the binding signal (% of WT shifted) is 100.
Regarding Q-satRNA WT, the binding signal (% of WT shifted) stood at 100.
